Results taken from the supplement of paper PMC12764529.
± gives the half width of the 95% confidence interval.

Assay: folding stability dG unfold (combined trypsin and chymotrypsin); higher = more stable
Outline: (§1)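 Only designs with AlphaFold2 dimer inter-PAE above 15 were retained; each was a mini-protein under 80 residues with no cysteine, in a PA-tagged cDNA display construct. After digestion with trypsin and chymotrypsin and sequencing, K50 was inferred by Bayesian fitting of counts, and unfolding free energy was derived per protease or combined against a sequence-predicted unfolded-state K50 and a shared folded-state K50.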

| Sequence | folding stability dG unfold |
| --- | --- |
| SAGGSAGGSAGLKPEVEALVRVVLKLPEGERVVLVKVKTLEELFELDLPEVVSIEIRPLKSAGGSAGGSAGG [r17_290_TrMRF] | 1.6 ± 0.064 kcal/mol |
| SAGGSAGGSAGGKTLRIKVEETEYVVLFPNTGRLLVIPPGYEAEIELDDAPDVLILGRPPSAGGSAGGSAGG [r11_939_TrMRF] | 1.34 ± 0.13 kcal/mol |
| SNLMIHFENPDNGVRVMIQINPEHGRIKLSVMYPNGKPVAEQTIEVDPNKIRLRFKVGGRKFEIEIEIPESA [r9_385_TrROS] | 5.62 ± 0.54 kcal/mol |
| SAGGSAGGSALKPNETATIRILTTAPDGKPYVLVVEVRVLPDGGVEVLGYKLVTLSDLEKNSAGGSAGGSAG [r3_212_TrMRF] | 3.32 ± 0.11 kcal/mol |
| SAGGSAGGSSMPIYTVTVTYSDGTVRTYELTPEEIEAFAAEVPDAEVTELPPGKVEVTVKIPASAGGSAGGS [r20_231_JUSTAS] | 2.33 ± 0.07 kcal/mol |
| SAGGSAGGSAGGGMVIVTREPENLTFTVYREDPSTGKLRRIGTFPVSPDELEKVLALLSSAGGSAGGSAGGS [r10_275_JUSTAS] | 2.2 ± 0.079 kcal/mol |
| SANPALYQWVTTDVVLPFETEEEALAAVEALAAARAAATGATVTVSVEVERLPDGLRVRVPVTTLVPLLSAG [r14_626_JUSTAS] | 1.05 ± 0.046 kcal/mol |
| SAGGSAGGSAGGSMVLTTTVEETVVDENGVETKITVKTYKLPDSEITLVTFPDGTVTPESAGGSAGGSAGGS [r10_404_JUSTAS] | 0.493 ± 0.072 kcal/mol |
| SAGGSAGGSAGGLPKPVTVTLSRPEGGETLTLTFPSGTTPEEVRAAVEAEPDLSILSISSSAGGSAGGSAGG [r7_624_JUSTAS] | 1.1 ± 0.059 kcal/mol |
| SAGKTIVIKAKTAEEAINALLKELKKKGEKVKITVTVYDKNGKEVYRVTIEIDPKEKGKIKIKVEKVPSAGG [r19_85_TrROS_Hall] | 3.33 ± 0.44 kcal/mol |
| RVEVLENGEVIAVFPAEFLADIPPDDPLLLTLTLTLPDGYRVYVTFYNLPDGTVVAIARVEPVEVGPELAAS [r1_394_TrMRF] | 4.22 ± 0.12 kcal/mol |
| SAGGSAGGSAGDNFKIKIESFNIMRLPDGYVMISIKIEITVGDKPVEITIMIIIPPGAPISAGGSAGGSAGG [r17_352_TrROS] | 5.68 ± 0.41 kcal/mol |
| SAGGSMIVIVEIKPDGTIKIKVRTKDGKEKTIEISKEELEKEETPEEIAEKLAKEFEKEGVEEIEISAGGSA [r2_249_TrROS_Hall] | 2.26 ± 0.32 kcal/mol |
| SAGGSAMVTVTRYPDGTYVVEATGRGDSRTFTLDLPLEEIKEVLEKEGIKIDKIEVKPAPVDPAKVSAGGSA [r15_576_JUSTAS] | 1.4 ± 0.05 kcal/mol |
| SAGGSAGGPKKIKITNIEYPNGYWRVKISLPNGKEVEYPMDSPDDALDWAEDDGIKEVEIEKYNSAGGSAGG [r6_601_TrROS] | 0.159 ± 0.18 kcal/mol |
| SAGGMKVTILEVKPDEVVVKTSDGKTYVFPEVIKELKEKGGGVLPTKEEIAEYLKKNNIPVDDVEFGLSAGG [r13_610_JUSTAS] | 1.6 ± 0.15 kcal/mol |
| SGNGEVEVEINIRIVIEPWDPNGEPDPVPIAEIPIKAEYDANDPEAVDFAVLDILDLLAPENPGYRIHIESA [r9_1112_TrROS] | 0.731 ± 0.062 kcal/mol |

Assay: folding stability dG unfold from trypsin proteolysis; higher = more stable
Outline: as §1

| Sequence | folding stability dG unfold |
| --- | --- |
| SAGGSAGGSAGLKPEVEALVRVVLKLPEGERVVLVKVKTLEELFELDLPEVVSIEIRPLKSAGGSAGGSAGG [r17_290_TrMRF] | 1.28 ± 0.028 kcal/mol |
| SAGGSAGGSAGGKTLRIKVEETEYVVLFPNTGRLLVIPPGYEAEIELDDAPDVLILGRPPSAGGSAGGSAGG [r11_939_TrMRF] | 0.123 ± 0.18 kcal/mol |
| SNLMIHFENPDNGVRVMIQINPEHGRIKLSVMYPNGKPVAEQTIEVDPNKIRLRFKVGGRKFEIEIEIPESA [r9_385_TrROS] | 4.32 ± 0.19 kcal/mol |
| SAGGSAGGSALKPNETATIRILTTAPDGKPYVLVVEVRVLPDGGVEVLGYKLVTLSDLEKNSAGGSAGGSAG [r3_212_TrMRF] | 2.53 ± 0.11 kcal/mol |
| SAGGSAGGSSMPIYTVTVTYSDGTVRTYELTPEEIEAFAAEVPDAEVTELPPGKVEVTVKIPASAGGSAGGS [r20_231_JUSTAS] | 2.01 ± 0.096 kcal/mol |
| SAGGSAGGSAGGGMVIVTREPENLTFTVYREDPSTGKLRRIGTFPVSPDELEKVLALLSSAGGSAGGSAGGS [r10_275_JUSTAS] | 1.77 ± 0.053 kcal/mol |
| SANPALYQWVTTDVVLPFETEEEALAAVEALAAARAAATGATVTVSVEVERLPDGLRVRVPVTTLVPLLSAG [r14_626_JUSTAS] | 1.05 ± 0.012 kcal/mol |
| SAGGSAGGSAGGSMVLTTTVEETVVDENGVETKITVKTYKLPDSEITLVTFPDGTVTPESAGGSAGGSAGGS [r10_404_JUSTAS] | 0.493 ± 0.023 kcal/mol |
| SAGGSAGGSAGGLPKPVTVTLSRPEGGETLTLTFPSGTTPEEVRAAVEAEPDLSILSISSSAGGSAGGSAGG [r7_624_JUSTAS] | 1.2 ± 0.074 kcal/mol |
| SAGKTIVIKAKTAEEAINALLKELKKKGEKVKITVTVYDKNGKEVYRVTIEIDPKEKGKIKIKVEKVPSAGG [r19_85_TrROS_Hall] | 2.19 ± 0.22 kcal/mol |
| RVEVLENGEVIAVFPAEFLADIPPDDPLLLTLTLTLPDGYRVYVTFYNLPDGTVVAIARVEPVEVGPELAAS [r1_394_TrMRF] | 3.32 ± 0.14 kcal/mol |
| SAGGSAGGSAGDNFKIKIESFNIMRLPDGYVMISIKIEITVGDKPVEITIMIIIPPGAPISAGGSAGGSAGG [r17_352_TrROS] | 4.03 ± 0.15 kcal/mol |
| SAGGSMIVIVEIKPDGTIKIKVRTKDGKEKTIEISKEELEKEETPEEIAEKLAKEFEKEGVEEIEISAGGSA [r2_249_TrROS_Hall] | 2.88 ± 0.26 kcal/mol |
| SAGGSAMVTVTRYPDGTYVVEATGRGDSRTFTLDLPLEEIKEVLEKEGIKIDKIEVKPAPVDPAKVSAGGSA [r15_576_JUSTAS] | 1.268 ± 0.012 kcal/mol |
| SAGGSAGGPKKIKITNIEYPNGYWRVKISLPNGKEVEYPMDSPDDALDWAEDDGIKEVEIEKYNSAGGSAGG [r6_601_TrROS] | -0.429 ± 0.49 kcal/mol |
| SAGGMKVTILEVKPDEVVVKTSDGKTYVFPEVIKELKEKGGGVLPTKEEIAEYLKKNNIPVDDVEFGLSAGG [r13_610_JUSTAS] | 0.436 ± 0.1 kcal/mol |
| SGNGEVEVEINIRIVIEPWDPNGEPDPVPIAEIPIKAEYDANDPEAVDFAVLDILDLLAPENPGYRIHIESA [r9_1112_TrROS] | 1.11 ± 0.067 kcal/mol |

Assay: folding stability dG unfold from chymotrypsin proteolysis; higher = more stable
Outline: as §1

| Sequence | folding stability dG unfold |
| --- | --- |
| SAGGSAGGSAGLKPEVEALVRVVLKLPEGERVVLVKVKTLEELFELDLPEVVSIEIRPLKSAGGSAGGSAGG [r17_290_TrMRF] | 1.73 ± 0.049 kcal/mol |
| SAGGSAGGSAGGKTLRIKVEETEYVVLFPNTGRLLVIPPGYEAEIELDDAPDVLILGRPPSAGGSAGGSAGG [r11_939_TrMRF] | 1.79 ± 0.16 kcal/mol |
| SNLMIHFENPDNGVRVMIQINPEHGRIKLSVMYPNGKPVAEQTIEVDPNKIRLRFKVGGRKFEIEIEIPESA [r9_385_TrROS] | 5.6 ± 0.29 kcal/mol |
| SAGGSAGGSALKPNETATIRILTTAPDGKPYVLVVEVRVLPDGGVEVLGYKLVTLSDLEKNSAGGSAGGSAG [r3_212_TrMRF] | 3.74 ± 0.082 kcal/mol |
| SAGGSAGGSSMPIYTVTVTYSDGTVRTYELTPEEIEAFAAEVPDAEVTELPPGKVEVTVKIPASAGGSAGGS [r20_231_JUSTAS] | 2.49 ± 0.027 kcal/mol |
| SAGGSAGGSAGGGMVIVTREPENLTFTVYREDPSTGKLRRIGTFPVSPDELEKVLALLSSAGGSAGGSAGGS [r10_275_JUSTAS] | 2.47 ± 0.074 kcal/mol |
| SANPALYQWVTTDVVLPFETEEEALAAVEALAAARAAATGATVTVSVEVERLPDGLRVRVPVTTLVPLLSAG [r14_626_JUSTAS] | 0.984 ± 0.099 kcal/mol |
| SAGGSAGGSAGGSMVLTTTVEETVVDENGVETKITVKTYKLPDSEITLVTFPDGTVTPESAGGSAGGSAGGS [r10_404_JUSTAS] | 0.462 ± 0.1 kcal/mol |
| SAGGSAGGSAGGLPKPVTVTLSRPEGGETLTLTFPSGTTPEEVRAAVEAEPDLSILSISSSAGGSAGGSAGG [r7_624_JUSTAS] | 0.892 ± 0.063 kcal/mol |
| SAGKTIVIKAKTAEEAINALLKELKKKGEKVKITVTVYDKNGKEVYRVTIEIDPKEKGKIKIKVEKVPSAGG [r19_85_TrROS_Hall] | 3.65 ± 0.2 kcal/mol |
| RVEVLENGEVIAVFPAEFLADIPPDDPLLLTLTLTLPDGYRVYVTFYNLPDGTVVAIARVEPVEVGPELAAS [r1_394_TrMRF] | 4.46 ± 0.066 kcal/mol |
| SAGGSAGGSAGDNFKIKIESFNIMRLPDGYVMISIKIEITVGDKPVEITIMIIIPPGAPISAGGSAGGSAGG [r17_352_TrROS] | 5.74 ± 0.18 kcal/mol |
| SAGGSMIVIVEIKPDGTIKIKVRTKDGKEKTIEISKEELEKEETPEEIAEKLAKEFEKEGVEEIEISAGGSA [r2_249_TrROS_Hall] | 2.19 ± 0.54 kcal/mol |
| SAGGSAMVTVTRYPDGTYVVEATGRGDSRTFTLDLPLEEIKEVLEKEGIKIDKIEVKPAPVDPAKVSAGGSA [r15_576_JUSTAS] | 1.5 ± 0.034 kcal/mol |
| SAGGSAGGPKKIKITNIEYPNGYWRVKISLPNGKEVEYPMDSPDDALDWAEDDGIKEVEIEKYNSAGGSAGG [r6_601_TrROS] | 0.358 ± 0.28 kcal/mol |
| SAGGMKVTILEVKPDEVVVKTSDGKTYVFPEVIKELKEKGGGVLPTKEEIAEYLKKNNIPVDDVEFGLSAGG [r13_610_JUSTAS] | 1.9 ± 0.058 kcal/mol |
| SGNGEVEVEINIRIVIEPWDPNGEPDPVPIAEIPIKAEYDANDPEAVDFAVLDILDLLAPENPGYRIHIESA [r9_1112_TrROS] | 0.379 ± 0.047 kcal/mol |
